# Assay results published in patent publication US12723075B2, “Humanized antibodies directed against KCNK9” (The Johns Hopkins University, priority 2020, dated 2026).
# B1: H4L3: Humanized KCNK9 IgG1 antibody clone, VH SEQ ID NO: 12 and VL SEQ ID NO: 16 (antibody, V domains shown)
# VH: QVQLVQSGAEVKKPGASVKVSCKASGYSFTGYYMYWVRQAPGQRLEWMGEINPSSGGTTYNQKFKARVTLTVDKSASTAYMELSSLRSEDTAVYYCARSGLRRRFYAMDYWGQGTLVTVSS
# VL: EIVLTQSPATLSLSPGERATLSCRASESVDSFGTTFMHWYQQKPGQPPRLLIYRASNLESGIPARFSGSGSRTDFTLTISSLEPEDFATYYCQQSNKDPPTFGGGTKVEIK
# modifications: human IgG1 constant regions
# B2: AF-H4L3: Afucosyl version of H4L3 antibody generated using fut8−/− CHO cells (antibody, V domains shown)
# VH: QVQLVQSGAEVKKPGASVKVSCKASGYSFTGYYMYWVRQAPGQRLEWMGEINPSSGGTTYNQKFKARVTLTVDKSASTAYMELSSLRSEDTAVYYCARSGLRRRFYAMDYWGQGTLVTVSS
# VL: EIVLTQSPATLSLSPGERATLSCRASESVDSFGTTFMHWYQQKPGQPPRLLIYRASNLESGIPARFSGSGSRTDFTLTISSLEPEDFATYYCQQSNKDPPTFGGGTKVEIK
# B3: AF-H5L2: Afucosyl version of H5L2 antibody generated using fut8−/− CHO cells (antibody, V domains shown)
# VH: QVQLVQSGAEVKKPGASVKVSCKASGYSFTGYYMYWVRQAPGQRLEWIGEINPSSGGTTYNQKFKARATLTVDKSASTAYMELSSLRSEDTAVYYCARSGLRRRFYAMDYWGQGTLVTVSS
# VL: EIVLTQSPATLSLSPGERATLSCRASESVDSFGTTFMHWYQQKPGQAPRLLIYRASNLESGIPARFSGSGSRTDFTLTISSLEPEDFAVYYCQQSNKDPPTFGGGTKVEIK
# B4: H5L2: Humanized KCNK9 IgG1 antibody clone, VH SEQ ID NO: 13 and VL SEQ ID NO: 15 (antibody, V domains shown)
# VH: QVQLVQSGAEVKKPGASVKVSCKASGYSFTGYYMYWVRQAPGQRLEWIGEINPSSGGTTYNQKFKARATLTVDKSASTAYMELSSLRSEDTAVYYCARSGLRRRFYAMDYWGQGTLVTVSS
# VL: EIVLTQSPATLSLSPGERATLSCRASESVDSFGTTFMHWYQQKPGQAPRLLIYRASNLESGIPARFSGSGSRTDFTLTISSLEPEDFAVYYCQQSNKDPPTFGGGTKVEIK
# modifications: human IgG1 constant regions
# B5: chimeric KCNK9 antibody: Murine anti-KCNK9 variable regions (SEQ ID NO: 1 and 2) fused with human antibody IgG1 constant regions (antibody, V domains shown)
# VH: EVQLQQSGPELVKPGASVKTSCKASGYSFTGYYMYWVKQSPEKSLEWIGEINPSSGGTTYNQKFKAKATLTVDKSSSTAYMQLKSLTFEDSAVYYCARSGLRRRFYAMDYWGQGTSVTVSS
# VL: DIVLTQSPASLAVSLGQRATVSCRASESVDSFGTTFMHWYQQKPGQPPKLLIYRASNLESGIPARFSGSGSRTDFTLTINPVEADDVATYYCQQSNKDPPTFGGGSKLEIK
# modifications: human IgG1 constant regions lack entries; Mus
# Experiments:
# human KCNK9 = molecular target: T1, human KCNK9 (Homo sapiens, UniProt Q9NPC2); experiment: Flow cytometry binding to KCNK9-expressing HEK293 cells; conditions: for Binding affinity to human KCNK9 relative to parental murine monoclonal antibody: PE conjugate secondary antibody (FIG. 1B)
# T1 construct: expressed in transfected cells; host or cells: HEK293 cells, stably transfected, tetracycline-inducible promoter
# Text: An anti-KCNK9 mouse monoclonal antibody having a VH amino acid sequence of SEQ ID NO: 1 and a VL amino acid sequence of SEQ ID NO: 2 (mu-mAb) was humanized using a method based on Queen et al., Proc. Natl. Acad. Sci. USA, 86: 10029-10033 (1989). The hybridoma antibody was sequenced after amplifying the antibody variable regions by RT-PCR with degenerate primers. The variable regions were fused with the human antibody IgG1 constant regions to produce a chimeric antibody. Antigen binding of the chimeric antibody was confirmed by staining of the KCNK9-expressing cells. HEK293 cells were stably transfected with KCNK9 expression vector under the tetracycline inducible promoter. After induction, the cells were incubated with various concentrations of chimeric KCNK9 antibody for 30 minutes, followed by secondary anti-human Fc FITC conjugate. Chimeric antibody binding was analyzed by flow cytometry. High affinity binding was confirmed with an EC50 of about 0.3 μg/mL (FIG. 1A).
# After antibody sequence analysis and structure modeling, the murine antibody CDRs (SEQ ID NOs: 3-8) were grafted into human antibody VK3-11 and VH1-3 frameworks. Critical murine antibody framework residues that support CDR conformation were identified and introduced into the human frameworks. Five variants of the humanized VH sequences (VH1-5; SEQ ID NOs: 9-13) and three variants of the humanized VL variants (VL1-3; SEQ ID NOs: 14-16) were designed and synthesized. All of the variable regions were cloned into a human IgG1 expression vector. The VHs and VLs were cross-matched to generate 15 humanized KCNK9 antibody clones. All humanized antibodies were produced by transient transfection in 293 cells and purified by Protein A chromatography. Antigen binding of the humanized KCNK9 antibodies was characterized by immunofluorescence staining of KCNK9-expressing cells.
# [1] = test system: KCNK9-expressing BEN lung carcinoma cells; experiment: Cell growth and viability assays (cell numbers, MTT, trypan blue exclusion); type: cell-based, human; conditions: 0.4 mg/mL (FIGS. 4A-4C)
# Protocol: The cytotoxic effect of the AF-H4L3 and AF-H5L2 monoclonal antibodies was tested on KCNK9-expressing BEN lung carcinoma cells. Equal numbers of viable BEN cells were treated with AF-H4L3, AF-H5L2, or human IgG control (0.4 mg/mL). Cells were collected at indicated days after treatment for cell growth and viability assays.
# [2] = test system: BEN lung carcinoma xenografts; experiment: Pre-established BEN lung carcinoma xenografts in nude mice; type: in vivo; conditions: 4 mg/kg b.w. twice per week, established tumors, p<0.01 (FIGS. 6A-6D)
# Protocol: Equal numbers of viable BEN cells (4×10^6 cells) were implanted into the flanks of nude mice. Humanized anti-KCNK9 monoclonal antibodies AF-H4L3, AF-H5L2, or control human IgG (4 mg/kg b.w.) were administered twice per week after tumor xenografts were established and palpable. Tumor volumes were then monitored during treatments using caliper measurements every alternate day (N=10 for each group).
# [3] = test system: LX22 PDX small cell lung cancer cells; experiment: ADCC Reporter Bioassay with luciferase Jurkat effector cells; type: cell-based, human; conditions: six hours at 4° C. or 37° C. (FIG. 3)
# Protocol: The capacity of the humanized KCNK9 AF-H5L2 monoclonal antibody to induce ADCC directed against LX22 PDX small cell lung cancer cells also was evaluated. ADCC assays were performed using the ADCC Reporter Bioassay Complete Kit (Promega #G7015). Human lung CA KCNK9+LX22 cells or CD20+ Raji cells (as positive control) were plated at 50,000 cells per well. On the following day, humanized afucosyl anti-KCNK9 (hu-AF-H5), hu-anti-CD20, or non-immune huIgG1 (as negative control) was added. 30 minutes later, FcγIIIa+ Jurkat effector cells expressing the vNFAT-luciferase ADCC reporter were added (300,000 cells/well). Cell mixtures were incubated for six hours at either 4° C. or 37° C. Cells were collected, solubilized, and luciferase activity was quantified as a biomarker of Jurkat cell activation.
# [4] = test system: KCNK9-positive BT549 carcinoma cells; experiment: Cell viability, KCNK9-positive breast cancer cells; type: cell-based, human; conditions: BT549, KCNK9-positive (FIG. 5)
# [5] = test system: KCNK9-negative MDA-MB-231 cells; experiment: Cell viability, KCNK9-negative cells; type: cell-based, human; conditions: MDA-MB-231, KCNK9-negative (FIG. 5)
# [6] = test system: Human LX22 PDX-derived lung carcinoma cells; experiment: MTT cell viability in combination with PARP or CDK4/6 inhibitor; type: cell-based; conditions: 72 hours
# Protocol: Inhibitors of poly-ADP ribose polymerase (PARP) and cyclin dependent kinases (CDK4/6) are FDA-approved and undergoing clinical testing for multiple solid tumors. It was investigated whether inhibiting the KCNK9 K^+ channel with huKCNK9 mAb sensitized cancer cells to these therapeutics. Human LX22 PDX-derived lung carcinoma cells were treated with the PARP inhibitor AZD2461 (100 μM)+/−huKCNK9 mAb (400 μg/ml) or with the CDK4/6 inhibitor palbociclib (0.5 μM)+/−huKCNK9 mAb (400 μg/ml) for 72 hours. Cell viability was then quantified by MTT assay. Statistical comparisons were performed by ANOVA and post-hoc Tukey test.
# T1 sequence (Q9NPC2 whole entry): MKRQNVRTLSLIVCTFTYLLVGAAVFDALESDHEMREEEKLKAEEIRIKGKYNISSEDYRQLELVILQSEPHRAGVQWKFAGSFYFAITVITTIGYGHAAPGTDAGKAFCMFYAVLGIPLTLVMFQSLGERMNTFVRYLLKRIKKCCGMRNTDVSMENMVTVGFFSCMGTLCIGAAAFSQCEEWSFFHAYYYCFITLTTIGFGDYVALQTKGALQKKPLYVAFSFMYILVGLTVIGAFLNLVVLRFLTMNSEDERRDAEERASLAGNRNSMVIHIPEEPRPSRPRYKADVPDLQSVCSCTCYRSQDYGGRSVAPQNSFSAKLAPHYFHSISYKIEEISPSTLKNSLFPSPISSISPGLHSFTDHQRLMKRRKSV
molecule,measurement,setting,value
B1,Binding affinity to human KCNK9 relative to parental murine monoclonal antibody,human KCNK9,higher affinity than their parental KCNK9 murine monoclonal antibody
B2,Effect on cell growth and viability,[1],inhibited cell growth and viability
same,Effect on tumor growth (tumor volume),[2],significantly attenuated tumor growth
B3,ADCC induction (luciferase activity of Jurkat effector cells),[3],induced ADCC that was temperature dependent
same,"Activity compared between the two clones, cell growth and viability",[1],comparatively more active
same,Effect on cell growth and viability,[1],inhibited cell growth and viability
same,Effect on cell viability,[4],inhibited the viability
same,Effect on cell viability,[5],without effecting the viability
same,Effect on tumor growth (tumor volume),[2],significantly attenuated tumor growth
same,Effect on cell toxicity induced by PARP inhibition,"[6]; 400 μg/ml mAb + AZD2461 100 μM, MTT (FIG. 7A)",substantially augmented
same,Effect on cell toxicity induced by CDK4/6 inhibition,"[6]; 400 μg/ml mAb + palbociclib 0.5 μM, MTT (FIG. 7B)",substantially augmented
B4,Binding affinity to human KCNK9 relative to parental murine monoclonal antibody,human KCNK9,higher affinity than their parental KCNK9 murine monoclonal antibody
B5,EC50 of binding to KCNK9-expressing HEK293 cells,"human KCNK9; flow cytometry, 30 minutes incubation, anti-human Fc FITC secondary",about 0.3 μg/mL
